The text below walks through data of paper PMC2671406 (PLoS ONE, 2009).

What all share (conditions): both partners purified
For experiment [1], the target named is T1, Human (vertebrate) calmodulin (human, UniProt P0DP23 1-149).
T1 construct: also called CaM
Kind of experiment: SEC; CaM (200 µl at 176 µM) on Superdex 75 HR 10/30 with and without excess (625 µM) CnA-CBD peptide; 50 mM HEPES pH 7.5, 150 mM NaCl, 4 mM CaCl2.

The target of experiment [2] is T1, Human (vertebrate) calmodulin. The experiment can be described thus: ITC; CaM (0.1 mM) in the cell, CnA-CBD peptide (1 mM) in the syringe, 5 µl injections; +35°C; 10 mM HEPES pH 7.5, 100 mM NaCl, 10 mM CaCl2. On the technique in general: ITC needs no label: the signal is the heat of the interaction.
Experiment [3] shares this target. The experiment can be described thus: ITC; CaM (0.1 mM) in the cell, CnA-CBD peptide (1 mM) in the syringe, 5 µl injections; +30°C; 10 mM HEPES pH 7.5, 100 mM NaCl, 10 mM CaCl2.

B1: Peptide corresponding to the CaM binding domain of calcineurin A (residues 395-411) (peptide)
peptide: VIRNKIRAIGKMARVFS
notes: also called CnA-CBD; CnA-CBD peptide; source: bought: GL Biochem (Shanghai, China)
In general, stoichiometry N refers to a count of units in the complex or per binding partner. In general, Kd refers to a measure of binding affinity in units of concentration. For B1, in experiment [1], the “stoichiometry N” value was determined as 1. In experiment [2], the Ka was 1.4e+06 M⁻¹, the dissociation constant (Kd) came to 700 nM and the dH was -5.7 kcal/mol. In experiment [3], the Ka is 3.5e+06 M⁻¹, the Kd is 300 nM and the dH is -1.8 kcal/mol.
